Experimental data published in patent publication US20070105162A1, “Monovalent avidin and streptavidin compositions” (Massachusetts Institute of Technology, priority 2005, published 2007).

How the values were obtained:
[1] = Kd of D4 by 3H-biotin binding and protein precipitation; details: 24 μM D4, increasing 3H-biotin (0-500 μM), >20 hr room temperature; ± s.e.m.
Experimental: After incubation at room temperature for 20 hr, the protein was precipitated by adding 50 μL to 200 μL 0.2 M ZnSO4 followed by 200 μL 0.2 M NaOH. The protein precipitate was pelleted by centrifugation at 16,500 g for 5 min. The biotin bound by D4 was calculated from the total ^3H-biotin added minus the ^3H-biotin in the supernatant. The Kd was obtained using a nonlinear regression analysis (one-site binding hyperbola) with SigmaPlot (Systat Software; Point Richmond, Calif.).

[2] = Thermostability assay of avidin tetramer (SDS-PAGE); format: physicochemical; details: 100° C., PBS
Experimental: 2.3 μM wild-type avidin or chimeric avidin in PBS is heated at the indicated temperature for 3 min in a PTC-200 PCR machine (MJ Research; Waltham, Mass.) and then immediately placed on ice (Bayer, E. A. et al. Electrophoresis 17: 1319-1324, 1996). Samples are mixed with 6×SDS-PAGE loading buffer and loaded onto a 16% polyacrylamide gel.
(§1) Methods described in the Avidin Methods section above herein are used for the following production and testing of monovalent avidin. Tests are performed to determine whether monovalent avidin will rearrange its subunit composition over time. […] Wild-type avidin and A1D3 are heated in PBS at various temperatures and tetramer disassembly is determined by SDS-PAGE.

[3] = tested on: biotinylated AP-neuroligin-1 on hippocampal neurons; assay: AP-neuroligin-1 clustering in hippocampal neurons labeled with streptavidin; format: cell-based, rat; details: two hour incubation at 37° C., Alexa Fluor 568 conjugate; ± s.e.m., n=9
Experimental: HeLa cells were grown in Dulbecco's Modified Eagle Medium (DMEM) with 10% Fetal Calf Serum, 50 U/mL penicillin and 50 μg/mL streptomycin. HeLa stably expressing AP-CFP-TM or Ala-CFP-TM have been previously described (Howarth, M. et al., Proc. Natl. Acad. Sci. USA 102: 7583-7588, 2005). Dissociated primary neuronal cultures were prepared from Embryonic Day 18 or 19 (E18/19) rats and transfected with Lipofectamine 2000 at DIV6 as in Levinson et al. (Levinson, J. N. et al., J. Biol. Chem. 280: 17312-17319, 2005). […]
Images of HeLa cells were collected on a Zeiss Axiovert 200M inverted epifluorescence microscope using a 40× oil-immersion lens and a MicroMAX CCD camera (Roper Scientific; Tucson, Ariz.). CFP (420DF20 excitation, 450DRLP dichroic, 475DF40 emission) and Alexa568 (560DF20 excitation, 585DRLP dichroic, 605DF30 emission) images were collected and analyzed using OpenLab software (Improvision; Lexington, Mass.). Fluorescence images were background-corrected. […] Images were scaled to 16 bits and analyzed in Northern Eclipse (Empix Imaging; Ontario, Canada) with user-written software. […] Results were then calculated in terms of clusters per micrometer of dendrite. For assessment of pre-synaptic terminals, clusters were determined as before and average grey levels of clusters were compared between transfected dendrites and untransfected dendrites within the same field of view. […]

[4] = Off-rate of 3H-biotin from streptavidin (cold biotin chase); format: binding; details: 50 μM cold biotin chase, 5 hours at 37° C., ± s.e.m.
Experimental: (Green, N. M. Methods in Enzymol. 184: 51-67, 1990). Dissociation was then initiated by addition of cold biotin at a final concentration of 50 μM and time-points taken over 5 hours at 37° C. 50 μL aliquots were removed and added to 200 μL 0.2M ZnSO4 chilled on ice, followed by 200 μL 0.2 M NaOH. The protein precipitate was pelleted by centrifugation at 16,500 g for 5 min, and ^3H-biotin in the supernatant was measured by liquid scintillation counting. Data were plotted as ln(fraction bound) versus time, and fit to a straight line by linear regression. Dissociation rates were deduced from the slope of the line and the equation: ln(fraction bound)=−koff(t) where fraction bound=(total ^3H-biotin−free ^3H-biotin at timepoint)/(total ^3H-biotin−free ^3H-biotin before cold biotin chase).

[5] = Subunit exchange of monovalent streptavidin over time by SDS-PAGE; format: physicochemical; details: for A1D3 rearranged into D4: PBS
Experimental: Methods described in the Methods section above herein were used for the following production and testing of monovalent streptavidin. Tests were performed to determine whether monovalent streptavidin would rearrange its subunit composition over time.

[6] = Subunit exchange of monovalent avidin over time by SDS-PAGE; format: physicochemical
Experimental: as §1

[7] = 37° C. one day or room temperature one week

Substance: D4: Streptavidin tetramer with 4 dead subunits (D: N23A, S27D, S45A, SEQ ID NO:3) [Tetramer D4]
- Kd [1]: 918 ± 0.0117 µM

Substance: A1D3: Monovalent streptavidin tetramer: one His6-tagged wild-type (A) subunit and three dead (D) subunits [Tetramer A1D3]
- fraction remaining tetrameric on heating [2]: significant fraction
- AP-neuroligin-1 clusters per micrometer of dendrite [3]: 0.087±0.021 clusters/μm
- off-rate from biotin [4]: 6.14±0.19×10^−5 s^−1
- A1D3 rearranged into D4 ([5]; 37° C. incubation for one day): 2%
- Formation of A2D2 from subunit exchange [5, 7]: not detected
- A1D3 rearranged into D4 ([5]; room temperature incubation for one week): 3%
- A1D3 avidin rearranged into D4 ([6]; 37° C. for one day or room temperature for one week): small percentage
- Formation of A2D2 from subunit exchange [6, 7]: not detected
